Target: T1, GST-p53 fusion protein (UniProt P04637 1-393)
T1 construct: not shown: glutathione S-transferase (GST) fusion partner
Assay: GST-p53 pull-down of HA-tagged protein from H1299 lysate, α-HA Western blot
Method: FIG. 6F is a digital image of mapping of p53-interacting region in nucleostemin by GST pull-down assay. […] The retained proteins (bound) were detected by α-HA Western blot and expressed as ratios to the input.
To map the interacting region between nucleostemin and p53, HA-tagged mutant proteins were expressed in H1299 cells and incubated with agarose-bound GST-p53 fusion protein in GST pull-down experiments. The amount of mutant proteins retained by GST-p53 fusion was measured by Western blot and presented as the ratio to the input proteins.

T1 sequence (P04637 whole entry, the tested form may be a part): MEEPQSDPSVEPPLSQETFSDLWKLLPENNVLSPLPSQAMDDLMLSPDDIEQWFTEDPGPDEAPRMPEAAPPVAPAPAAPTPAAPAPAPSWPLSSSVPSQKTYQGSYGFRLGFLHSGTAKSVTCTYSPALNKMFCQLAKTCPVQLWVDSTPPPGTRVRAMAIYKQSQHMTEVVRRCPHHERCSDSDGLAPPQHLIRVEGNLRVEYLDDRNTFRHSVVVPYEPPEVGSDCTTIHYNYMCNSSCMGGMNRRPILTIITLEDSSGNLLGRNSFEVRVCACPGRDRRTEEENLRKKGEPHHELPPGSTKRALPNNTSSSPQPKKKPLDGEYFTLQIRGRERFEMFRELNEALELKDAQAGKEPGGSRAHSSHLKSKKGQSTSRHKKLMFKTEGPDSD

Row | Binder | fold reduction of the amount bound, against wild-type nucleostemin [fold] | further results
1 | HA-tagged nucleostemin mutant dB (deletion of the basic domain, codons 2-46) (other, not shown: HA (hemagglutinin) tag) MDPGVPNSAPFKEALLREAELRKQQLEELKQQQKLDRQKEQERKRKLEISPDDEQSNVETQEESDEPKIKKAKSGKQNPKKLHCQELKKVIEASDIVLEVLDARDPLGCRCPQVEEAVIQSGCKKLVLVLNKSDLVPKENLENWLTYLNKELPTVVFKASTNLKNRKKTFKIKKKVVPFQSKLCCGKEALWKLLGGFQQSCGKGVQVGVVGFPNVGKSSIINSLKQERICSVGVSMGLTRSMQIVPLDKQITIIDSPCFIISPCNSPAALALRSPASIEVLRPLEAASAILSQADSQQVVLKYTVPGYKDSLDFFTKLAQRRGLHQKGGSPNVESAAKLLWSEWTGASLGYYCHPPASWNHSPHFNENITAIMKRGFNLEELEKNNAHSIQVLKGPHLTNKILFRSSGLTNGILEEKDIPEESPKQTEDQQDGDDQEHVTGEKNAEISDVTPVEETREMSPGQSTASKPSDRSFILDKMSEEDDAYDFTTDYI | – | binding of nucleostemin to p53 (retained protein, ratio to input): 17%
2 | HA-tagged nucleostemin mutant dG4 (deletion of the G4 GTP-binding motif, codons 177-180) (other, not shown: HA (hemagglutinin) tag) MKRPKLKKASKRMTCHKRYKIQKKVREHHRKLRKEAKKRGHKKPKKDPGVPNSAPFKEALLREAELRKQQLEELKQQQKLDRQKEQERKRKLEISPDDEQSNVETQEESDEPKIKKAKSGKQNPKKLHCQELKKVIEASDIVLEVLDARDPLGCRCPQVEEAVIQSGCKKLVLVLNVPKENLENWLTYLNKELPTVVFKASTNLKNRKKTFKIKKKVVPFQSKLCCGKEALWKLLGGFQQSCGKGVQVGVVGFPNVGKSSIINSLKQERICSVGVSMGLTRSMQIVPLDKQITIIDSPCFIISPCNSPAALALRSPASIEVLRPLEAASAILSQADSQQVVLKYTVPGYKDSLDFFTKLAQRRGLHQKGGSPNVESAAKLLWSEWTGASLGYYCHPPASWNHSPHFNENITAIMKRGFNLEELEKNNAHSIQVLKGPHLTNKILFRSSGLTNGILEEKDIPEESPKQTEDQQDGDDQEHVTGEKNAEISDVTPVEETREMSPGQSTASKPSDRSFILDKMSEEDDAYDFTTDYI | – | fold increase of the amount bound, against wild-type nucleostemin: 1.5 fold

The next lines start with results.

Row | fold reduction of the amount bound, against wild-type nucleostemin [fold] | Binder | further results
3 | 1.5 | HA-tagged nucleostemin mutant dCC (deletion of the coiled-coil domain, codons 61-87) (other, not shown: HA (hemagglutinin) tag) MKRPKLKKASKRMTCHKRYKIQKKVREHHRKLRKEAKKRGHKKPKKDPGVPNSAPFKEALRKRKLEISPDDEQSNVETQEESDEPKIKKAKSGKQNPKKLHCQELKKVIEASDIVLEVLDARDPLGCRCPQVEEAVIQSGCKKLVLVLNKSDLVPKENLENWLTYLNKELPTVVFKASTNLKNRKKTFKIKKKVVPFQSKLCCGKEALWKLLGGFQQSCGKGVQVGVVGFPNVGKSSIINSLKQERICSVGVSMGLTRSMQIVPLDKQITIIDSPCFIISPCNSPAALALRSPASIEVLRPLEAASAILSQADSQQVVLKYTVPGYKDSLDFFTKLAQRRGLHQKGGSPNVESAAKLLWSEWTGASLGYYCHPPASWNHSPHFNENITAIMKRGFNLEELEKNNAHSIQVLKGPHLTNKILFRSSGLTNGILEEKDIPEESPKQTEDQQDGDDQEHVTGEKNAEISDVTPVEETREMSPGQSTASKPSDRSFILDKMSEEDDAYDFTTDYI | –
4 | 1.5 | HA-tagged nucleostemin mutant dA (deletion of the acidic domain, codons 460-503) (other, not shown: HA (hemagglutinin) tag) MKRPKLKKASKRMTCHKRYKIQKKVREHHRKLRKEAKKRGHKKPKKDPGVPNSAPFKEALLREAELRKQQLEELKQQQKLDRQKEQERKRKLEISPDDEQSNVETQEESDEPKIKKAKSGKQNPKKLHCQELKKVIEASDIVLEVLDARDPLGCRCPQVEEAVIQSGCKKLVLVLNKSDLVPKENLENWLTYLNKELPTVVFKASTNLKNRKKTFKIKKKVVPFQSKLCCGKEALWKLLGGFQQSCGKGVQVGVVGFPNVGKSSIINSLKQERICSVGVSMGLTRSMQIVPLDKQITIIDSPCFIISPCNSPAALALRSPASIEVLRPLEAASAILSQADSQQVVLKYTVPGYKDSLDFFTKLAQRRGLHQKGGSPNVESAAKLLWSEWTGASLGYYCHPPASWNHSPHFNENITAIMKRGFNLEELEKNNAHSIQVLKGPHLTNKILFRSSGLTNGILMSPGQSTASKPSDRSFILDKMSEEDDAYDFTTDYI | –
